The test system of assay [1] is CD8+ T cells and CD4+/FoxP3+ Treg cells. As to the kind of experiment: Proliferation of CD8+ T cells and Treg cells in PBMCs (Exp. Ex. 10). The assay is classed as cell-based, human. The conditions noted are these: for proliferation of CD4+/FoxP3+ Treg cells: compared with no stimulus and anti-CD3 antibody alone. The procedure: Human PBMCs were purchased from Allcells (Lot #3014928, USA). […] CellTrace CFSE dye was used, which was reacted with the human PBMCs under a light-blocking condition at […] for 20 minutes. The cells were labeled with CFSE by being reacted with 1 μM CellTrace CFSE dye at 37° C. for 20 minutes. CFSE not bound to the cells was removed by being reacted for 5 minutes with a culture medium having a 5-fold volume of the staining reaction solution and then by being centrifuged at 1,300 rpm for 5 minutes. The CFSE-labeled PBMCs were resuspended in the culture medium (RPMI1640 medium containing 10% fetal bovine serum, 10 mM HEPES, 100 U/ml penicillin/streptomycin, 1 mM sodium pyruvate, 55 μM 2-mercaptoethanol, 1 mM non-essential amino acid, and 2 mM L-glutamine), and then added to a 96-well microplate at 1×10^5 cells per well.
The incubated cells were examined for their degree of proliferation by measuring, with FACS analysis using anti-human CD4-PE antibody (BioLegend, USA), anti-human CD8-PE/Cy7 antibody (BioLegend, USA), and anti-human FoxP3-APC antibody (BioLegend, USA), a proportion of CD8+ T cells that had not been labeled with CFSE.

Assay [2] deals with effector CD8+ T cells, NK cells, Treg cells. Briefly: Effect on mouse immune cells in spleen. The settings on record: vs PBS. The assay is classed as in vivo, C57BL/6 mice. On the procedure: On days 1, 3, 5, 7, and 14 after the injection, the spleen tissues were removed from the mice of each group. Thereafter, for the spleen tissue, the numbers of effector CD8+ T cells, NK cells, and Treg cells were calculated with FACS analysis using respective antibodies, and proportions of effector CD8+ T cells and NK cells with respect to Treg cells were respectively calculated. The information on the antibodies used in each cell analysis is as follows:
Effector CD8+ T cell: PB anti-mouse CD3ε antibody (Biolegend, #155612; KT3.1.1), FITC anti-mouse CD8α antibody (BD, #553031, 53-6.7), PE/Cy7 anti-mouse CD44 antibody (Biolegend, #103030; IM7), APC anti-mouse CD122 antibody (Biolegend, #123214; TM-β1)
NK cell: PB anti-mouse CD3ε antibody (Biolegend, #155612; KT3.1.1), PE anti-mouse NK-1.1 (Biolegend, #108708; PK136)
Treg cell: FITC anti-mouse CD3 antibody (Biolegend, #100204; 17A2), PB anti-mouse CD4 antibody (Biolegend, #100531; RM4-5), PE anti-mouse CD25 antibody (Biolegend, #102008; PC61), APC anti-mouse Foxp3 antibody (Invitrogen, #FJK-16s, 17-5773-82).

In the next assay the test system is CT26 cancer cell line. As to the kind of experiment: mGI102-M61 in mice transplanted with CT26 (Exp. Ex. 18). The assay is classed as in vivo, BALB/c mice. The conditions noted are these: 12 mg/kg i.v. The procedure:
The tumor size was measured daily.

B1: GI102-M61: hCD80-Fc-IL-2 variant (3M) (R38A, F42A, E61R); SEQ ID NO: 28 (protein)
chain: VIHVTKEVKEVATLSCGHNVSVEELAQTRIYWQKEKKMVLTMMSGDMNIWPEYKNRTIFDITNNLSIVILALRPSDEGTYECVVLKYEKDAFKREHLAEVTLSVKADFPTPSISDFEIPTSNIRRIICSTSGGFPEPHLSWLENGEELNAINTTVSQDPETELYAVSSKLDFNMTTNHSFMCLIKYGHLRVNQTFNWNTTKQEHFPDNGSGGGGSGGGGSGGGGSAESKYGPPCPPCPAPEAAGGPSVFLFPPKPKDQLMISRTPEVTCVVVDVSQEDPEVQFNWYVDGVEVHNAKTKPREEQFNSTYRVVSVLTVLHQDWLNGKEYKCKVSNKGLPSSIEKTISKAKGQPREPQVYTLPPSQEEMTKNQVSLTCLVKGFYPSDIAVEWESNGQPENNYKTTPPVLDSDGSFFLYSRLTVDKSRWQEGNVFSCSVLHEALHNHYTQKSLSLSLGGGGGSAPTSSSTKKTQLQLEHLLLDLQMILNGINNYKNPKLTAMLTAKFYMPKKATELKHLQCLERELKPLEEVLNLAQSKNFHLRPRDLISNINVIVLELKGSETTFMCEYADETATIVEFLNRWITFCQSIISTLT
modifications: Sequence of fusion protein (GI102-M61)
As to B1, the “proportion of CD8+ T cells” value in assay [1] (anti-CD3ε 1 μg/ml, 7 days, compared with no stimulus, anti-CD3 antibody alone and GI101C1) is on record as “significant increase”. The “proliferation of CD4+/FoxP3+ Treg cells” value in assay [1] is “did not exhibit a significant increase”.

B2: mGI102-M61: mCD80-Fc-IL-2 variant (3M) (R38A, F42A, E61R); SEQ ID NO: 34 (protein)
chain: MDAMLRGLCCVLLLCGAVFVSPSHAVDEQLSKSVKDKVLLPCRYNSPHEDESEDRIYWQKHDKVVLSVIAGKLKVWPEYKNRTLYDNTTYSLIILGLVLSDRGTYSCVVQKKERGTYEVKHLALVKLSIKADFSTPNITESGNPSADTKRITCFASGGFPKPRFSWLENGRELPGINTTISQDPESELYTISSQLDFNTTRNHTIKCLIKYGDAHVSEDFTWEKPPEDPPDSGSGGGGSGGGGSGGGGSAESKYGPPCPPCPAPEAAGGPSVFLFPPKPKDQLMISRTPEVTCVVVDVSQEDPEVQFNWYVDGVEVHNAKTKPREEQFNSTYRVVSVLTVLHQDWLNGKEYKCKVSNKGLPSSIEKTISKAKGQPREPQVYTLPPSQEEMTKNQVSLTCLVKGFYPSDIAVEWESNGQPENNYKTTPPVLDSDGSFFLYSRLTVDKSRWQEGNVFSCSVLHEALHNHYTQKSLSLSLGGGGGSAPTSSSTKKTQLQLEHLLLDLQMILNGINNYKNPKLTAMLTAKFYMPKKATELKHLQCLERELKPLEEVLNLAQSKNFHLRPRDLISNINVIVLELKGSETTFMCEYADETATIVEFLNRWITFCQSIISTLT
modifications: Sequence of fusion protein (mGI102-M61)
For the molecule B2, the “proportions of activated CD8+ T cells/Treg cells and NK cells/Treg cells” value in assay [2] (3rd to 7th days after administration) was “significant increase”. Also, the “numbers of CD8+ T cells and NK cells” value in assay [2] (3rd to 14th days after i.v. administration (3, 6 or 12 mg/kg)) is given as “significant increase”. Further, the survival rate result in the assay on CT26 cancer cell line (vs negative control) is “significant improvement”. Besides, in the assay with CT26 cancer cell line (vs negative control (hIgG4)), the Tumor growth inhibition entry is “significant tumor growth inhibition”.

B3: GI101C1: comparative fusion protein: human CD80 fragment, Ig hinge, Fc domain; SEQ ID NO: 17 (protein)
chain: VIHVTKEVKEVATLSCGHNVSVEELAQTRIYWQKEKKMVLTMMSGDMNIWPEYKNRTIFDITNNLSIVILALRPSDEGTYECVVLKYEKDAFKREHLAEVTLSVKADFPTPSISDFEIPTSNIRRIICSTSGGFPEPHLSWLENGEELNAINTTVSQDPETELYAVSSKLDFNMTTNHSFMCLIKYGHLRVNQTFNWNTTKQEHFPDNGSGGGGSGGGGSGGGGSAESKYGPPCPPCPAPEAAGGPSVFLFPPKPKDQLMISRTPEVTCVVVDVSQEDPEVQFNWYVDGVEVHNAKTKPREEQFNSTYRVVSVLTVLHQDWLNGKEYKCKVSNKGLPSSIEKTISKAKGQPREPQVYTLPPSQEEMTKNQVSLTCLVKGFYPSDIAVEWESNGQPENNYKTTPPVLDSDGSFFLYSRLTVDKSRWQEGNVFSCSVLHEALHNHYTQKSLSLSLG
modifications: Sequence of fusion protein (GI101C1)
For B3, in assay [1], the “proliferation of CD4+/FoxP3+ Treg cells” value was “did not exhibit a significant increase”.

The record behind these values is patent US11857601B2, “Pharmaceutical composition for cancer treatment comprising fusion protein including IL-2 protein and CD80 protein and anticancer drug” (GI INNOVATION, INC., priority 2020, dated 2024).
